The target of assay [1] is NRPS N-(5-amino-5-carboxypentanoyl)-L-cysteinyl-D-valine synthase PcbAB (Penicillium chrysogenum).
Assay [2] addresses NRPS Pc21g12630 protein ChyA (Penicillium chrysogenum).
Assay [3] addresses NRPS Roquefortine/meleagrin synthesis protein A RoqA (Penicillium chrysogenum).

This note sets out measurements from patent US20190233477A1.

MbtH-like protein Tcp13 from the teicoplanin biosynthesis cluster from Actinoplanes teichomyceticus, sequence (chain): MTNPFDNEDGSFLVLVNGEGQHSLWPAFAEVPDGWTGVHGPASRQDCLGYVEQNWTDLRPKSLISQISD
MbtH-like homologue identified in the Veg biosynthesis cluster obtainable from an uncultured soil bacterium, called VEG8, sequence (chain): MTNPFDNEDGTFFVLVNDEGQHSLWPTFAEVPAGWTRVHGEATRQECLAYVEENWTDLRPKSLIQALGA

In assay [1], “MbtH-like homologue SCO0489 from the calcium dependent antibiotic (CDA) biosynthesis cluster from Streptomyces coelicolor, called CDAI” yielded a relative productivity of LLD-ACV (penicillin cluster), day 5, strain DS47274, transformant 9-5, LC/MS, untransformed strain set to 1.0 (fold of the untransformed strain (1.0)) of 12.5. The relative productivity of Chrysogenin 12 (chrysogenin cluster), day 5, strain DS47274, transformant 9-4, LC/MS, untransformed strain set to 1.0 (fold of the untransformed strain (1.0)) in assay [2] was determined as 413. Besides, the relative productivity of HTD (roquefortine cluster), day 2, strain DS47274, transformant 9-5, LC/MS, untransformed strain set to 1.0 (fold of the untransformed strain (1.0)) in assay [3] came to 4.48.
“MbtH-like homologue identified in the Veg biosynthesis cluster obtainable from an uncultured soil bacterium, called VEG8”: the relative productivity of LLD-ACV (penicillin cluster), day 5, strain DS47274, transformant 12-4, LC/MS, untransformed strain set to 1.0 (fold of the untransformed strain (1.0)) in assay [1] amounted to 2.32. In addition, the relative productivity of Chrysogenin 12 (chrysogenin cluster), day 5, strain DS47274, transformant 12-4, LC/MS, untransformed strain set to 1.0 (fold of the untransformed strain (1.0)) in assay [2] was 189. In assay [3], this substance had a relative productivity of HTD (roquefortine cluster), day 2, strain DS47274, transformant 12-4, LC/MS, untransformed strain set to 1.0 (fold of the untransformed strain (1.0)) of 2.9.
“MbtH-like homologue from the complestatine biosynthesis cluster from Streptomyces lavendulae, called COM” had a relative productivity of LLD-ACV (penicillin cluster), day 5, strain DS47274, transformant 7-3, LC/MS, untransformed strain set to 1.0 (fold of the untransformed strain (1.0)) in assay [1] of 22.7. The same substance registered a relative productivity of Chrysogenin 12 (chrysogenin cluster), day 5, strain DS47274, transformant 7-3, LC/MS, untransformed strain set to 1.0 (fold of the untransformed strain (1.0)) in assay [2] of 317. Besides, in assay [3], the relative productivity of HTD (roquefortine cluster), day 2, strain DS47274, transformant 8-4, LC/MS, untransformed strain set to 1.0 (fold of the untransformed strain (1.0)) came to 2.32.
“MbtH-like protein Tcp13 from the teicoplanin biosynthesis cluster from Actinoplanes teichomyceticus” returned a relative productivity of LLD-ACV (penicillin cluster), day 5, strain DS47274, transformant 10-2, LC/MS, untransformed strain set to 1.0 (fold of the untransformed strain (1.0)) in assay [1] of 16.1. In assay [2], the relative productivity of Chrysogenin 12 (chrysogenin cluster), day 5, strain DS47274, transformant 10-5, LC/MS, untransformed strain set to 1.0 (fold of the untransformed strain (1.0)) worked out at 465. This substance also returned a relative productivity of HTD (roquefortine cluster), day 2, strain DS47274, transformant 10-2, LC/MS, untransformed strain set to 1.0 (fold of the untransformed strain (1.0)) in assay [3] of 2.64.
For “MbtH-like homologue identified in the Teg biosynthesis cluster obtainable from an uncultured soil bacterium, called TEG”, the relative productivity of LLD-ACV (penicillin cluster), day 5, strain DS47274, transformant 11-5, LC/MS, untransformed strain set to 1.0 (fold of the untransformed strain (1.0)) in assay [1] is 10.9. For the same substance, the relative productivity of Chrysogenin 12 (chrysogenin cluster), day 5, strain DS47274, transformant 11-5, LC/MS, untransformed strain set to 1.0 (fold of the untransformed strain (1.0)) in assay [2] was 266. In addition, the relative productivity of HTD (roquefortine cluster), day 2, strain DS47274, transformant 11-5, LC/MS, untransformed strain set to 1.0 (fold of the untransformed strain (1.0)) in assay [3] is 9.35.
